Results as given in patent US20240218074A1 (AKESO BIOPHARMA, published 2024).

Legend:
[1] = biological target: T1, human NT5E-Biotin (NT5E is GenbankID: NP_002517.1, position: 1-552) (human, UniProt P21589 27-552, biotin label (site not stated)); test: ELISA on streptavidin-captured human NT5E-Biotin; HRP goat anti-mouse IgG
T1 construct: range 1-552; Recombinant soluble antigen made by Akeso (batch 20160505), biotinylated and captured on streptavidin; also called HNT5E-Biotin; human NT5E (1-552)-Biotin
T1 sequence (looked up): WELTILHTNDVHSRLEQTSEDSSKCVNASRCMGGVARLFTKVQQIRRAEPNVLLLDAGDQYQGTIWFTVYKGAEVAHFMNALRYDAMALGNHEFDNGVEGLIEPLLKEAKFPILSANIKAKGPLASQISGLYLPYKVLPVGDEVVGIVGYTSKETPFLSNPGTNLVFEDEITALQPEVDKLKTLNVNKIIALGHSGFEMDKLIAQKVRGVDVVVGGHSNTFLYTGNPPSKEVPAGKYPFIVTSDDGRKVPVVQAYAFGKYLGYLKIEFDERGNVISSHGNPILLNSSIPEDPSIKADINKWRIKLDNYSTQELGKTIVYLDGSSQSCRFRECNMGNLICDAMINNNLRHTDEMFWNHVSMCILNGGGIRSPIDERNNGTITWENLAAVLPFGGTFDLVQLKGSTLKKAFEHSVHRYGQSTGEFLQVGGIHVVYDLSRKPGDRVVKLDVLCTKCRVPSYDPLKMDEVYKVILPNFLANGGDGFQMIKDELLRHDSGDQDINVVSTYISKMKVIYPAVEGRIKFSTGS

[2] = biological target: T2, human CD73 expressed on cells (human PBMC CD8+ T cells and CD19+ B cells); endogenous CD73 of MDA-MB-231 and … (human, UniProt P21589 27-549); test: cell-based or functional assay
T2 sequence (looked up): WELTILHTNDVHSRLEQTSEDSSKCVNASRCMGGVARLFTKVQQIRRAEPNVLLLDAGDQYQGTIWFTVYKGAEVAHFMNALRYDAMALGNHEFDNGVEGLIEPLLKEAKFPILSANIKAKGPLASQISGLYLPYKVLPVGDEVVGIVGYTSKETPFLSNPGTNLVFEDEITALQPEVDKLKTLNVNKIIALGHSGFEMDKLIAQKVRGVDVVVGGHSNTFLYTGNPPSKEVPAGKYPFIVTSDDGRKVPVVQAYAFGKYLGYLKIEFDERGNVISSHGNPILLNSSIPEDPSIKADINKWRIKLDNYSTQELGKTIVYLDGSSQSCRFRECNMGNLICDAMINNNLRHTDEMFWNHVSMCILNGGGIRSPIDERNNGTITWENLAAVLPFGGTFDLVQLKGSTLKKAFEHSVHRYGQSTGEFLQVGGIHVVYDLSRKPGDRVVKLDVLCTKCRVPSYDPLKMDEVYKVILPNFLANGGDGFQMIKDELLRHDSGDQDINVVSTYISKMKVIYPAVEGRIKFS

[3] = biological target: T2, human CD73 expressed on cells (human …); test: FACS on human PBMC, binding to CD8+ T cells
Procedure: (§1) The experimental steps are as follows: The PBMCs were resuscitated, centrifuged at 1,200 rpm for 5 min, and the supernatant was discarded, resuspended in complete medium, counted, and incubated overnight at 37° C. The solution was centrifuged at 1,200 rpm for 5 min, cells were harvested, diluted antibody solution was added at 100 μL/well, mixed well, and incubated in a refrigerator at 4° C. for 1 hour. The solution was centrifuged at 750×g for 5 min, the supernatant was discarded, and washed 2 times with 200 μL of 1×PBS (containing 1% BSA and 0.05% NaN3). Anti-human CD3-FITC (2 μL/100 μL), anti-human CD19-PE (2 μL/100 μL) (Biolegend, article number: 302254), anti-human CD8-PerCP Cy5.5 (1 μL/100 μL), anti-human IgG Fc-AF647 (1:300) (Southern Biotech, catalog number: 9040-31) were added, and incubated at 4° C. for 30 minutes. The solution was centrifuged at 750×g for 5 min, the supernatant was discarded, washed once with 200 μL of 1×PBS (including 1% BSA and 0.05% NaN3); resuspended with 300 μL of 1×PBS (including 1% BSA and 0.05% NaN3), transferred to flow tubes, and loaded for testing.

[4] = biological target: T2, human CD73 expressed on cells (human …); test: FACS on human PBMC, binding to CD19+ B cells
Procedure: as §1

B1: murine anti-CD73 monoclonal antibody 19F3 (antibody, V domains shown)
VH: EVQLQQSGPELVKPGASMRMSCKASGYSFTGYTMNWVKQSHGKNLEWIGLINPYNAGTSYNQKFKGKATLTVDKSSSTAYMELLSLTSEDSAVYYCARSEYRYGGDYFDYWGQGTTLTVSS
VL: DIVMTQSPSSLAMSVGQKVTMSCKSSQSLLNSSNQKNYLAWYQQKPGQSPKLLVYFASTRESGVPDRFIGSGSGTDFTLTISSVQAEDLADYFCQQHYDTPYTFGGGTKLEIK
notes: Mouse hybridoma antibody purified on protein A; also called murine antibody 19F3; Murine 19F3
EC50 [1]: 0.018 nM

B2: control antibody CPI-006 (Mupadolimab) (antibody, human IgG1, kappa, N297Q, V domains shown)
VH: QVQLVQSGAEVEKPGASVKVSCKASGYTFTSYWITWVRQAPGQGLEWMGDIYPGSGNTNYNEKFKTRVTITADKSTSTAYMELSSLRSEDTAVYYCAKEGGLTTEDYALDYWGQGTLVTVSS
VL: EIVLTQSPATLSLSPGERATLSCRASKNVSTSGYSYMHWYQQKPGQAPRLLIYLASNLESGIPPRFSGSGYGTDFTLTINNIESEDAAYYFCQHSRELPFTFGQGTKVEIKR
notes: made by Akeso
Inhibition rate EC50 (nM): enzyme activity of CD73 expressed by human PBMC membrane (AMP/ATP CellTiter-Glo read-out) [2]: 0.226 nM
EC50 [3]: 0.288 nM
EC50 [4]: 0.108 nM
